Paper PMC4528106
pKd: −log10 of the molar value. Where two headings read alike, the source gives them in different places.

Experiments:
[1] = target: HKU4-CoV 3CLpro (bat coronavirus HKU4)
[2] = target: MERS-CoV 3CLpro (nsp5 protease), without any N- or C-terminal extensions (MERS-CoV)
[3] = target: MERS-CoV 3CLpro (nsp5 protease), without any N- or C-terminal extensions (MERS-CoV); assay: AUC
[4] = target: SARS-CoV 3CLpro with authentic N and C termini (SARS-CoV)

HKU4-CoV 3CLpro (enzyme)
pKd [1]: 7.00

MERS-CoV 3CLpro (nsp5 protease), without any N- or C-terminal extensions (enzyme)
pKd [2]: 5.11
pKd [3]: 4.28
koff [3]: 0.0001 s⁻¹
stoichiometry N [3]: 2

SARS-CoV 3CLpro with authentic N and C termini (enzyme)
pKd [4]: 7.22
